Data published in EP4806913A1 (Vaxcell-Bio Co., Ltd., dated 2025).

Biological target: T1, recombinant EphA2 protein (R&D systems) (human, UniProt P29317 25-534, limits assumed)
T1 construct: Bought protein coated on the ELISA plate at 1 ug/mL; also called hEphA2; human antigen EphA2
Test: ELISA: recombinant EphA2 coated at 1 ug/mL, monobody-amh diluted twofold from 500 nM, detected with HRP anti-c-Myc antibody, OD 450 nm

T1 sequence (P29317 25-534 limits assumed): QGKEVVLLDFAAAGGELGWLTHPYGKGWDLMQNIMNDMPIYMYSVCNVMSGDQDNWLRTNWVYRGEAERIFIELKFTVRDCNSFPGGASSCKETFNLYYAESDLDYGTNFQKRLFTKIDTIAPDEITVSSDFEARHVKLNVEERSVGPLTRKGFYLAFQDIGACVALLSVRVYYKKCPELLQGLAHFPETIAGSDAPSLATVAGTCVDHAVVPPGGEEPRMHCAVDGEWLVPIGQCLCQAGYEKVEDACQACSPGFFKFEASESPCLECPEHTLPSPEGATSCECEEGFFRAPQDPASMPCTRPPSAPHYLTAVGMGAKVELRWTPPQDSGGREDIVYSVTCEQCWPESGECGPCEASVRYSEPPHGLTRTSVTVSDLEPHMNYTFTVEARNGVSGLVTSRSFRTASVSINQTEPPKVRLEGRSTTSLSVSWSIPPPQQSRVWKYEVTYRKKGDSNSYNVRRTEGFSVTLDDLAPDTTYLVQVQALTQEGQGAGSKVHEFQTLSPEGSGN

Row | Binder | binding result
1 | hpE1-amh (hydrophilic E1 monobody with C-terminal AviTag-Myc-6xHis tag) (designed binder, Expressed in E. coli BL21(DE3) from pETamh and purified by IMAC and size exclusion; The gene was cloned at an NdeI site that includes the ATG start codon; also called hpE1 monobody; hydrophilic monobody(hpE1); not shown: amh tag (AviTag-Myc-6xHis) of the pETamh vector linked to the C-terminus) SSDSPRNLEVTNATPNSLTISWYYPFCAFYYRITYGETGGNSPSQEFTVPRPSDTATISGLKPGQDYTITVYAVTCLGSYSRPISINYRTEIDKPSQ | binds
2 | E1-amh (E1 monobody with C-terminal AviTag-Myc-6xHis tag) (designed binder, Expressed in E. coli BL21(DE3) from pETamh and purified by IMAC and size exclusion; also called non-hydrophilic monobody(E1); E1 monomer; not shown: amh tag (AviTag-Myc-6xHis) of the pETamh vector linked to the C-terminus) VSDVPRDLEVVAATPTSLLISWYYPFCAFYYRITYGETGGNSPVQEFTVPRPSDTATISGLKPGVDYTITVYAVTCLGSYSRPISINYRT | binds
